Data published in patent EP4782466A1, “FUSION PROTEIN FOR INACTIVATING CORONAVIRUS AND USE THEREOF” (priority 2023, dated 2025).

How the values were obtained:
Test in all cases: cell-based or functional assay
[1] = target: S protein of SARS-CoV-2 Omicron XBB (SARS-CoV-2 XBB)
[2] = target: S protein of SARS-CoV-2 Delta (B.1.617.2) (SARS-CoV-2 Delta (B.1.617.2))
[3] = target: S protein of SARS-CoV-2 Omicron BA.2.9 (SARS-CoV-2 BA.2.9)
[4] = target: S protein of SARS-CoV-2 Omicron BA.2 (SARS-CoV-2 BA.2)
[5] = target: S protein of SARS-CoV-2 Beta (B.1.351) (SARS-CoV-2 Beta (B.1.351))
[6] = target: S protein of SARS-CoV-2 Gamma (P.1) (SARS-CoV-2 Gamma (P.1))
[7] = target: S protein of SARS-CoV-2 Omicron BA.1 (SARS-CoV-2 BA.1)
[8] = target: S protein of SARS-CoV-2 Alpha (B.1.1.7) (SARS-CoV-2 Alpha (B.1.1.7))
[9] = target: S protein of SARS-CoV-2 Omicron BA.4.6 (SARS-CoV-2 BA.4.6)
[10] = target: S protein of SARS-CoV-2 Omicron BF.7 (SARS-CoV-2 BF.7)
[11] = target: S protein of SARS-CoV-2 Lambda (SARS-CoV-2 Lambda)
[12] = target: S protein of SARS-CoV-2 Omicron BA.5 (SARS-CoV-2 BA.5)
[13] = target: S protein of SARS-CoV-2 Omicron BA.2.2 (SARS-CoV-2 BA.2.2)
[14] = target: S protein of SARS-CoV-2 Omicron BQ.1 (SARS-CoV-2 BQ.1)
[15] = target: S protein of SARS-CoV-2 Omicron BA.3 (SARS-CoV-2 BA.3)
[16] = target: S protein of SARS-CoV-2 Omicron BA.2.75 (SARS-CoV-2 BA.2.75)
[17] = target: S protein of SARS-CoV-2 Omicron BA.2.12.1 (SARS-CoV-2 BA.2.12.1)

## AL5E protein (ACE2-linker-EK1 fusion protein with (GGGGS)5 linker)
[1]
  EC50, inactivation of pseudovirus (Caco-2, luciferase): 4.69 nM
  Fold enhancement of AL5E over ACE2 (EC50, pseudovirus inactivation): 45.2 fold
  Fold enhancement of AL5E over ACE2 (IC50, pseudovirus inhibition): 74.5 fold
  IC50, inhibition of pseudovirus infection (Caco-2, luciferase): 0.17 nM
[2]
  EC50, inactivation of pseudovirus (Caco-2, luciferase): 8.21 nM
  Fold enhancement of AL5E over ACE2 (EC50, pseudovirus inactivation): 73.7 fold
  Fold enhancement of AL5E over ACE2 (IC50, pseudovirus inhibition): 30.3 fold
  IC50, inhibition of pseudovirus infection (Caco-2, luciferase): 0.16 nM
[3]
  EC50, inactivation of pseudovirus (Caco-2, luciferase): 8.62 nM
  Fold enhancement of AL5E over ACE2 (EC50, pseudovirus inactivation): 47.2 fold
  Fold enhancement of AL5E over ACE2 (IC50, pseudovirus inhibition): 95.4 fold
  IC50, inhibition of pseudovirus infection (Caco-2, luciferase): 0.08 nM
[4]
  EC50, inactivation of pseudovirus (Caco-2, luciferase): 3.04 nM
  Fold enhancement of AL5E over ACE2 (EC50, pseudovirus inactivation): 108 fold
  Fold enhancement of AL5E over ACE2 (IC50, pseudovirus inhibition): 96.8 fold
  IC50, inhibition of pseudovirus infection (Caco-2, luciferase): 0.13 nM
[5]
  EC50, inactivation of pseudovirus (Caco-2, luciferase): 1.57 nM
  Fold enhancement of AL5E over ACE2 (EC50, pseudovirus inactivation): 78.4 fold
  Fold enhancement of AL5E over ACE2 (IC50, pseudovirus inhibition): 94.5 fold
  IC50, inhibition of pseudovirus infection (Caco-2, luciferase): 0.17 nM
[6]
  EC50, inactivation of pseudovirus (Caco-2, luciferase): 2.7 nM
  Fold enhancement of AL5E over ACE2 (EC50, pseudovirus inactivation): 32.8 fold
  Fold enhancement of AL5E over ACE2 (IC50, pseudovirus inhibition): 68.5 fold
  IC50, inhibition of pseudovirus infection (Caco-2, luciferase): 0.22 nM
[7]
  EC50, inactivation of pseudovirus (Caco-2, luciferase): 1.29 nM
  Fold enhancement of AL5E over ACE2 (EC50, pseudovirus inactivation): 63.7 fold
  Fold enhancement of AL5E over ACE2 (IC50, pseudovirus inhibition): 624 fold
  IC50, inhibition of pseudovirus infection (Caco-2, luciferase): 0.03 nM
[8]
  EC50, inactivation of pseudovirus (Caco-2, luciferase): 8.72 nM
  Fold enhancement of AL5E over ACE2 (EC50, pseudovirus inactivation): 27.9 fold
  Fold enhancement of AL5E over ACE2 (IC50, pseudovirus inhibition): 47.7 fold
  IC50, inhibition of pseudovirus infection (Caco-2, luciferase): 0.13 nM
[9]
  EC50, inactivation of pseudovirus (Caco-2, luciferase): 2.28 nM
  Fold enhancement of AL5E over ACE2 (EC50, pseudovirus inactivation): 508 fold
  Fold enhancement of AL5E over ACE2 (IC50, pseudovirus inhibition): 70.8 fold
  IC50, inhibition of pseudovirus infection (Caco-2, luciferase): 0.93 nM
[10]
  EC50, inactivation of pseudovirus (Caco-2, luciferase): 1.99 nM
  Fold enhancement of AL5E over ACE2 (EC50, pseudovirus inactivation): 96.3 fold
  Fold enhancement of AL5E over ACE2 (IC50, pseudovirus inhibition): 362 fold
  IC50, inhibition of pseudovirus infection (Caco-2, luciferase): 0.28 nM
[11]
  EC50, inactivation of pseudovirus (Caco-2, luciferase): 2.75 nM
  Fold enhancement of AL5E over ACE2 (EC50, pseudovirus inactivation): 42 fold
  Fold enhancement of AL5E over ACE2 (IC50, pseudovirus inhibition): 427 fold
  IC50, inhibition of pseudovirus infection (Caco-2, luciferase): 0.03 nM
[12]
  EC50, inactivation of pseudovirus (Caco-2, luciferase): 2.27 nM
  Fold enhancement of AL5E over ACE2 (EC50, pseudovirus inactivation): 148 fold
  Fold enhancement of AL5E over ACE2 (IC50, pseudovirus inhibition): 382 fold
  IC50, inhibition of pseudovirus infection (Caco-2, luciferase): 0.04 nM
[13]
  EC50, inactivation of pseudovirus (Caco-2, luciferase): 3.35 nM
  Fold enhancement of AL5E over ACE2 (EC50, pseudovirus inactivation): 142 fold
  Fold enhancement of AL5E over ACE2 (IC50, pseudovirus inhibition): 59.3 fold
  Fold of AL5E over ACE2 (IC50, live BA.2.2 virus inhibition): 44 fold
  IC50, inhibition of pseudovirus infection (Caco-2, luciferase): 0.2 nM
[14]
  EC50, inactivation of pseudovirus (Caco-2, luciferase): 3.73 nM
  Fold enhancement of AL5E over ACE2 (EC50, pseudovirus inactivation): 40 fold
  Fold enhancement of AL5E over ACE2 (IC50, pseudovirus inhibition): 136 fold
  IC50, inhibition of pseudovirus infection (Caco-2, luciferase): 0.16 nM
[15]
  EC50, inactivation of pseudovirus (Caco-2, luciferase): 2.26 nM
  Fold enhancement of AL5E over ACE2 (EC50, pseudovirus inactivation): 23.1 fold
  Fold enhancement of AL5E over ACE2 (IC50, pseudovirus inhibition): 32.5 fold
  IC50, inhibition of pseudovirus infection (Caco-2, luciferase): 0.2 nM
[16]
  EC50, inactivation of pseudovirus (Caco-2, luciferase): 1.91 nM
  Fold enhancement of AL5E over ACE2 (EC50, pseudovirus inactivation): 354 fold
  Fold enhancement of AL5E over ACE2 (IC50, pseudovirus inhibition): 51 fold
  IC50, inhibition of pseudovirus infection (Caco-2, luciferase): 0.52 nM
[17]
  EC50, inactivation of pseudovirus (Caco-2, luciferase): 1.94 nM
  Fold enhancement of AL5E over ACE2 (EC50, pseudovirus inactivation): 39.2 fold
  Fold enhancement of AL5E over ACE2 (IC50, pseudovirus inhibition): 176 fold
  IC50, inhibition of pseudovirus infection (Caco-2, luciferase): 0.06 nM

## AL2E protein (ACE2-linker-EK1 fusion protein with (GGGGS)2 linker) (from UniProt Q9BYF1 18-615)
[1]
  IC50, inhibition of pseudovirus infection (Caco-2, luciferase): 0.64 nM
[2]
  IC50, inhibition of pseudovirus infection (Caco-2, luciferase): 0.32 nM
[3]
  IC50, inhibition of pseudovirus infection (Caco-2, luciferase): 0.43 nM
[4]
  IC50, inhibition of pseudovirus infection (Caco-2, luciferase): 0.16 nM
[5]
  IC50, inhibition of pseudovirus infection (Caco-2, luciferase): 0.27 nM
[6]
  IC50, inhibition of pseudovirus infection (Caco-2, luciferase): 0.39 nM
[7]
  IC50, inhibition of pseudovirus infection (Caco-2, luciferase): 0.18 nM
[8]
  IC50, inhibition of pseudovirus infection (Caco-2, luciferase): 0.22 nM
[9]
  IC50, inhibition of pseudovirus infection (Caco-2, luciferase): 1.03 nM
[10]
  IC50, inhibition of pseudovirus infection (Caco-2, luciferase): 0.46 nM
[11]
  IC50, inhibition of pseudovirus infection (Caco-2, luciferase): 0.09 nM
[12]
  IC50, inhibition of pseudovirus infection (Caco-2, luciferase): 0.1 nM
[13]
  IC50, inhibition of pseudovirus infection (Caco-2, luciferase): 0.4 nM
[14]
  IC50, inhibition of pseudovirus infection (Caco-2, luciferase): 0.4 nM
[15]
  IC50, inhibition of pseudovirus infection (Caco-2, luciferase): 0.58 nM
[16]
  IC50, inhibition of pseudovirus infection (Caco-2, luciferase): 0.69 nM
[17]
  IC50, inhibition of pseudovirus infection (Caco-2, luciferase): 0.26 nM

## EK1 polypeptide
[1]
  IC50, inhibition of pseudovirus infection (Caco-2, luciferase): 233 nM
[2]
  IC50, inhibition of pseudovirus infection (Caco-2, luciferase): 150 nM
[3]
  IC50, inhibition of pseudovirus infection (Caco-2, luciferase): 199 nM
[4]
  IC50, inhibition of pseudovirus infection (Caco-2, luciferase): 297 nM
[5]
  IC50, inhibition of pseudovirus infection (Caco-2, luciferase): 257 nM
[6]
  IC50, inhibition of pseudovirus infection (Caco-2, luciferase): 277 nM
[7]
  IC50, inhibition of pseudovirus infection (Caco-2, luciferase): 70.5 nM
[8]
  IC50, inhibition of pseudovirus infection (Caco-2, luciferase): 268 nM
[9]
  IC50, inhibition of pseudovirus infection (Caco-2, luciferase): 473 nM
[10]
  IC50, inhibition of pseudovirus infection (Caco-2, luciferase): 584 nM
[11]
  IC50, inhibition of pseudovirus infection (Caco-2, luciferase): 995 nM
[12]
  IC50, inhibition of pseudovirus infection (Caco-2, luciferase): 568 nM
[13]
  IC50, inhibition of pseudovirus infection (Caco-2, luciferase): 162 nM
[14]
  IC50, inhibition of pseudovirus infection (Caco-2, luciferase): 136 nM
[15]
  IC50, inhibition of pseudovirus infection (Caco-2, luciferase): 136 nM
[16]
  IC50, inhibition of pseudovirus infection (Caco-2, luciferase): 331 nM
[17]
  IC50, inhibition of pseudovirus infection (Caco-2, luciferase): 342 nM

## AL7E protein (ACE2-linker-EK1 fusion protein with (GGGGS)7 linker)
[1]
  IC50, inhibition of pseudovirus infection (Caco-2, luciferase): 0.94 nM
[2]
  IC50, inhibition of pseudovirus infection (Caco-2, luciferase): 0.31 nM
[3]
  IC50, inhibition of pseudovirus infection (Caco-2, luciferase): 0.21 nM
[4]
  IC50, inhibition of pseudovirus infection (Caco-2, luciferase): 0.12 nM
[5]
  IC50, inhibition of pseudovirus infection (Caco-2, luciferase): 0.24 nM
[6]
  IC50, inhibition of pseudovirus infection (Caco-2, luciferase): 0.25 nM
[7]
  IC50, inhibition of pseudovirus infection (Caco-2, luciferase): 0.14 nM
[8]
  IC50, inhibition of pseudovirus infection (Caco-2, luciferase): 0.21 nM
[9]
  IC50, inhibition of pseudovirus infection (Caco-2, luciferase): 0.56 nM
[10]
  IC50, inhibition of pseudovirus infection (Caco-2, luciferase): 0.93 nM
[11]
  IC50, inhibition of pseudovirus infection (Caco-2, luciferase): 0.27 nM
[12]
  IC50, inhibition of pseudovirus infection (Caco-2, luciferase): 0.31 nM
[13]
  IC50, inhibition of pseudovirus infection (Caco-2, luciferase): 0.28 nM
[14]
  IC50, inhibition of pseudovirus infection (Caco-2, luciferase): 1.14 nM
[15]
  IC50, inhibition of pseudovirus infection (Caco-2, luciferase): 0.11 nM
[16]
  IC50, inhibition of pseudovirus infection (Caco-2, luciferase): 1.04 nM
[17]
  IC50, inhibition of pseudovirus infection (Caco-2, luciferase): 0.23 nM
